No end group written: not given here. TMR = tetramethyl rhodamine dye

Test in all cases: fluorescence polarisation; 37 °C, after the 25 °C reading ramped over 7 min to 37 °C and 2 min incubation; unlabeled Rb^P against 1.5 nM TMR-E2F1^TD or 7.5 nM TMR-E7^LxCxE; 25 mM Tris pH 8.0, 200 mM NaCl, 1 mM DTT, 0.1% Tween-20; apparent Kd
Conditions in all cases: both partners purified
In general terms: Fluorescence polarisation rises when a labelled molecule tumbles more slowly, as on binding a larger partner.

In one assay the target is T1, Rb^P H686Y (human, UniProt P06400 380-788, H686Y).
T1 construct: also called variant 58
T1 sequence (looked up): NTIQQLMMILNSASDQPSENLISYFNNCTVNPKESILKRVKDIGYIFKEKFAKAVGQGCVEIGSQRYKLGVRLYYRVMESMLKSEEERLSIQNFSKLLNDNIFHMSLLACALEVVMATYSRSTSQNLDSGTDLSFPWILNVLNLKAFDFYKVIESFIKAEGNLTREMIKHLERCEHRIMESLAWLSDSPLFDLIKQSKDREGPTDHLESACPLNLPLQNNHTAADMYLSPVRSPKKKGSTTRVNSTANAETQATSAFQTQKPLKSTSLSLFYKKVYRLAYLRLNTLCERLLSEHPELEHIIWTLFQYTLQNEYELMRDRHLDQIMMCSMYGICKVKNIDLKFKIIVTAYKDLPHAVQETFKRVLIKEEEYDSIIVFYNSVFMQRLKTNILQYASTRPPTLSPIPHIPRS

A further assay concerns the target T2, Rb^P S474I (human, UniProt P06400 380-788, S474I).
T2 construct: also called variant 11
T2 sequence (looked up): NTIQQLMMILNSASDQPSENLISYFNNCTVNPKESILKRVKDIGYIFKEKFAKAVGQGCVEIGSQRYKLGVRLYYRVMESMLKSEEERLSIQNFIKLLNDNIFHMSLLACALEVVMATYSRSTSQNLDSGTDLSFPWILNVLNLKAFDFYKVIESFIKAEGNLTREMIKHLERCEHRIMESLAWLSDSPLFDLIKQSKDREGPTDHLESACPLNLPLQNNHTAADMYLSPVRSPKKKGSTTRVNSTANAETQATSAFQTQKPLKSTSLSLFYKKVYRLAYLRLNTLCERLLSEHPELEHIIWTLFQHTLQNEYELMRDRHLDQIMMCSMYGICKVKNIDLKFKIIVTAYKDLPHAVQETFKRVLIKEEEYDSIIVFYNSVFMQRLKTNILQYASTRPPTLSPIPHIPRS

For the next assay, the target named is T3, Rb^P D604G (human, UniProt P06400 380-788, D604G).
T3 construct: also called variant 36
T3 sequence (looked up): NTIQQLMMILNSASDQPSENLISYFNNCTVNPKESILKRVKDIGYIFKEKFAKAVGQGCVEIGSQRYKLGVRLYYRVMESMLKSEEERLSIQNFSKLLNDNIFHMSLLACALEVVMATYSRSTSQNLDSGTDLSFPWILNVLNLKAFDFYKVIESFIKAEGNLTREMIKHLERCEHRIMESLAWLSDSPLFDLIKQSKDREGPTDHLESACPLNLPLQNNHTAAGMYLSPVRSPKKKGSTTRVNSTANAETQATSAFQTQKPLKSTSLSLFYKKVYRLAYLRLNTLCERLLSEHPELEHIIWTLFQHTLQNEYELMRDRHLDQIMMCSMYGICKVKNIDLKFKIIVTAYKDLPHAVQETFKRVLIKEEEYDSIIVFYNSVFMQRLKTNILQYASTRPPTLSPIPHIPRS

Another assay has as its target T4, Rb^P E533K (human, UniProt P06400 380-788, E533K).
T4 construct: also called variant 22
T4 sequence (looked up): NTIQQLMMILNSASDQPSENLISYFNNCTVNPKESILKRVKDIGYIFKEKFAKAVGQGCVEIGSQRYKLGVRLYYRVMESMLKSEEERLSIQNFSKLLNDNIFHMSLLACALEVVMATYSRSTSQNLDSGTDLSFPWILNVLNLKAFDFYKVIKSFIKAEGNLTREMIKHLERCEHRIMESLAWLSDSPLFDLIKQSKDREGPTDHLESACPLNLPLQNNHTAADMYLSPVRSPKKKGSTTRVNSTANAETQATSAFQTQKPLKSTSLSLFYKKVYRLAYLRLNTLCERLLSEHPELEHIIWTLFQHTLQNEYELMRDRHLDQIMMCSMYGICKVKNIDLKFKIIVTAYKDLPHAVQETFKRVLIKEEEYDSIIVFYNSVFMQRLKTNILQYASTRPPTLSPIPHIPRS

The target of another assay is T5, Rb^P T687I (human, UniProt P06400 380-788, T687I).
T5 construct: also called variant 59
T5 sequence (looked up): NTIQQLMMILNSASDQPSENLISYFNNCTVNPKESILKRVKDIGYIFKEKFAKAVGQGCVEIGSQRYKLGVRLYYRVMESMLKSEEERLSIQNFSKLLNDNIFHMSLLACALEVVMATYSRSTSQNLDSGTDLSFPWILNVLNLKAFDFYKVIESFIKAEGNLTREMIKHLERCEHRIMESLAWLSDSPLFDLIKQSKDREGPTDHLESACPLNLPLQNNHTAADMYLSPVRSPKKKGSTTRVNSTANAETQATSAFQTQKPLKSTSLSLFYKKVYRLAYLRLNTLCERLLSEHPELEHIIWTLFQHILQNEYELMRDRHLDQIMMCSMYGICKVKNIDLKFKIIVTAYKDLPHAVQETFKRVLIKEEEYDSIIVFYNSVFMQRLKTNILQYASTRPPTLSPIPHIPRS

B1: TMR-E2F1^TD, peptide of the E2F1 transactivation domain (peptide)
peptide: {TMR}-GEGIRDLFDCDFGDLTPLD
notes: also called E2F^TD; source: synthetic peptide, bought: GenScript
On to B1, for which the Kd turned out to be 35 nM in the assay with Rb^P H686Y; 775 nM in the assay with Rb^P S474I; 50 nM with Rb^P D604G; 1800 nM with Rb^P E533K; 40 nM with Rb^P T687I.

B2: TMR-E7^LxCxE, LxCxE peptide of the E7 oncoprotein from HPV (peptide)
peptide: DLYCYEQLN
modifications: also: TMR label, position not given here
notes: source: synthetic peptide, bought: GenScript
Regarding B2, the Kd worked out at 14 nM with Rb^P H686Y; 18 nM with Rb^P S474I; 26 nM with Rb^P D604G; 14 nM with Rb^P E533K; 29 nM with Rb^P T687I.
